Experimental findings from publication PMC3678169 (The Journal of Cell Biology, 2013) are described below.

First the molecules themselves.
B1: human VE-cadherin peptide (654–669; MLAELYGSDPREELLY) (peptide)
peptide: Dansyl-MLAELYGSDPREELLY
B2: His-tagged Tiam1 PHn-CC-Ex domain (429–702) (domain or fragment, human, UniProt Q13009 429-702, looked up)
chain: AAQGTVRKAGALAVKNFLVHKKNKKVESATRRKWKHYWVSLKGCTLFFYESDGRSGIDHNSIPKHAVWVENSIVQAVPEHPKKDFVFCLSNSLGDAFLFQTTSQTELENWITAIHSACATAVARHHHKEDTLRLLKSEIKKLEQKIDMDEKMKKMGEMQLSSVTDSKKKKTILDQIFVWEQNLEQFQMDLFRFRCYLASLQGGELPNPKRLLAFASRPTKVAMGRLGIFSVSSFHALVAARTGETGVRRRTQAMSRSASKRRSRFSSLWGLDTT
B3: GST-p67 fusion (natural protein, human, UniProt P19878 1-526, looked up)
chain: MSLVEAISLWNEGVLAADKKDWKGALDAFSAVQDPHSRICFNIGCMYTILKNMTEAEKAFTRSINRDKHLAVAYFQRGMLYYQTEKYDLAIKDLKEALIQLRGNQLIDYKILGLQFKLFACEVLYNIAFMYAKKEEWKKAEEQLALATSMKSEPRHSKIDKAMECVWKQKLYEPVVIPVGKLFRPNERQVAQLAKKDYLGKATVVASVVDQDSFSGFAPLQPQAAEPPPRPKTPEIFRALEGEAHRVLFGFVPETKEELQVMPGNIVFVLKKGNDNWATVMFNGQKGLVPCNYLEPVELRIHPQQQPQEESSPQSDIPAPPSSKAPGRPQLSPGQKQKEEPKEVKLSVPMPYTLKVHYKYTVVMKTQPGLPYSQVRDMVSKKLELRLEHTKLSYRPRDSNELVPLSEDSMKDAWGQVKNYCLTLWCENTVGDQGFPDEPKESEKADANNQTTEPQLKKGSQVEALFSYEATQPEDLEFQEGDIILVLSKVNEEWLEGECKGKVGIFPKVFVEDCATTDLESTRREV

Test [1] concerns the target 15N-labeled Tiam1 PDZ domain (human, UniProt Q13009 841-930). Nature of the test: NMR titration.
The test “GST-p67 fusion” has as its target B3. Kind of test: pull-down.
Test [2] deals with His-tagged Tiam1 PHn-PHc (423–1406) (human, UniProt Q13009 423-1406). Nature of the test: pull-down.

Where no end group is shown, it is not given here. The star is where a group is joined. Dansyl = CN(C)c1cccc2c(S(=O)(=O)*)cccc12

Sequence of His-tagged Tiam1 PHn-PHc (423–1406) (Q13009 423-1406): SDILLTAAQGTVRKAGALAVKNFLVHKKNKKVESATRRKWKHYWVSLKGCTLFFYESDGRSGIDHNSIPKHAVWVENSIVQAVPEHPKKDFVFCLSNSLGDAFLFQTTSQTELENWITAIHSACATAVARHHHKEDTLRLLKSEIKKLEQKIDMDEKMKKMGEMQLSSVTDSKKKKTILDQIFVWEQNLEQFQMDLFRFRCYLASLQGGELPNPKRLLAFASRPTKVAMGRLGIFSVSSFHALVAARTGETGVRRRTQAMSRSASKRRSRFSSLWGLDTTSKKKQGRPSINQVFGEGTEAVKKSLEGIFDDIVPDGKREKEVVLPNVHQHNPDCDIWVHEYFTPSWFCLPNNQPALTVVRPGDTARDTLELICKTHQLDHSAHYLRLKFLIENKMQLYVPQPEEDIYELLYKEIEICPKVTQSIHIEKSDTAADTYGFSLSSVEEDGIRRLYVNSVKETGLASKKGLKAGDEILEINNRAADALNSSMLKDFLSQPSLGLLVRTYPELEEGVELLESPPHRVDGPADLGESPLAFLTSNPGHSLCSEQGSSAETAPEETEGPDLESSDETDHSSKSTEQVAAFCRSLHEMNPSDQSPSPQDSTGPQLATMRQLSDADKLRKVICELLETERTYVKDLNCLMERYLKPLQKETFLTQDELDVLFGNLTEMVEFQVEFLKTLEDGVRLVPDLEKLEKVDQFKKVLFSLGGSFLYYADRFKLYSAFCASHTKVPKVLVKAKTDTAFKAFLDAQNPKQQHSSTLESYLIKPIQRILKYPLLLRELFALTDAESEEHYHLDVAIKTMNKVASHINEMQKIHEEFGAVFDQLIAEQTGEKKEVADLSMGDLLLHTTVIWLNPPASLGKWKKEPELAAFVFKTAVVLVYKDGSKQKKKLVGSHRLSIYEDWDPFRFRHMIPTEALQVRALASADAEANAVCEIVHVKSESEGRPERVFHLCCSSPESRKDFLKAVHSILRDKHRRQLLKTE
Sequence of 15N-labeled Tiam1 PDZ domain (Q13009 841-930): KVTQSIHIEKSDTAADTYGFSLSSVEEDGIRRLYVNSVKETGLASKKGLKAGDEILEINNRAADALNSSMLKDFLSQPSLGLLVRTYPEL

One may read the Kd as the concentration at which binding is half-saturated. Molecule B1 yielded a Kd in test [1] of 980 ± 150 µM. With B2, the binding result with GST-p67 fusion is given as “binds”. Turning to B3, the binding result in test [2] is reported as “binds”.
